Test [1] deals with T1, HLA-B60 (B*4001) (human).
T1 construct: HLA class I on acid-stripped EBV-transformed B cells (B-LCL)
Kind of test: competition vs KESTC(FI)HLVL on stripped B-LCL, FACS.

A further test addresses T2, HLA-B61 (B*4002) (human).
T2 construct: HLA class I on acid-stripped EBV-transformed B cells (B-LCL)
Kind of test: competition vs GEFGGC(FI)GSV on stripped B-LCL, FACS.

The next test addresses T3, HLA-A1 (A*0101) (human).
T3 construct: MHC class I molecule on mild-acid-stripped EBV-transformed B cells (CAA)
As to the kind of experiment: cellular competition binding assay on acid-stripped B-LCL CAA, flow cytometry; competitor Fl-labeled reference peptide YLEPAC(Fl)AKY. (In general: A flow cytometer gives signals particle by particle.)

Test [2] addresses T4, HLA-B60 (B*4001) (human).
T4 construct: MHC class I molecule on mild-acid-stripped EBV-transformed B cells (DKB)
As to the kind of experiment: cellular competition binding assay on acid-stripped B-LCL DKB, flow cytometry; competitor Fl-labeled reference peptide KESTC(Fl)HLVL.

The next test concerns the target T5, HLA-A3 (A*0301) (human).
T5 construct: MHC class I molecule on mild-acid-stripped EBV-transformed B cells (EKR)
Kind of test: cellular competition binding assay on acid-stripped B-LCL EKR, flow cytometry; competitor Fl-labeled reference peptide KVFPC(Fl)ALINK.

The target in test [3] is T6, HLA-B7 (B*0702) (human).
T6 construct: HLA class I on acid-stripped EBV-transformed B cells (B-LCL)
As to the kind of experiment: competition vs APAPAPC(FI)WPL on stripped B-LCL, FACS.

In test [4] the target is T7, HLA-B8 (B*0801) (human).
T7 construct: HLA class I on acid-stripped EBV-transformed B cells (B-LCL)
Kind of test: competition vs FLRGRAC(FI)GL on stripped B-LCL, FACS.

The target of a further test is T8, HLA-B62 (B*1501) (human).
T8 construct: MHC class I molecule on mild-acid-stripped EBV-transformed B cells (BSM)
Kind of test: cellular competition binding assay on acid-stripped B-LCL BSM, flow cytometry; competitor Fl-labeled reference peptide YLGEFSC(Fl)TY.

Test [5] deals with T9, HLA-B7 (B*0702) (human).
T9 construct: Acid-stripped B-LCL
Kind of test: cell competition vs APAPAPC(FI)WPL, stripped JY B-LCL, FACS.

Test [6] deals with T10, HLA-B8 (B*0801) (human).
T10 construct: Acid-stripped B-LCL
Kind of test: cell competition vs FLRGRAC(FI)GL, stripped Vavy B-LCL, FACS.

A further test addresses T11, HLA-B35 (B*3501) (human).
T11 construct: MHC class I molecule on mild-acid-stripped EBV-transformed B cells (BVR)
As to the kind of experiment: cellular competition binding assay on acid-stripped B-LCL BVR, flow cytometry; competitor Fl-labeled reference peptide NPDIVC(Fl)YQY.

The target of test [7] is T12, HLA-B8 (B*0801) (human).
T12 construct: MHC class I molecule on mild-acid-stripped EBV-transformed B cells (Vavy)
As to the kind of experiment: cellular competition binding assay on acid-stripped B-LCL Vavy, flow cytometry; competitor Fl-labeled reference peptide FLRGRAC(Fl)GL.

As to RELFPPLFM [PRAME 50-58 RELFPPLFM], the IC50 (usually the concentration at which inhibition is half-maximal) was 1.48 µM with HLA-B60 (B*4001) [1] and under 1 µM with HLA-B61 (B*4002). Turning to GTLHLERLAY [PRAME 453-462 GTLHLERLAY], the IC50 with HLA-A1 (A*0101) amounted to 2 µM. In the case of DEALAIAAL [PRAME 37-45 DEALAIAAL], the IC50 with HLA-B60 (B*4001) [1] is 1.55 µM; in the test with HLA-B61 (B*4002), under 1 µM. In the test with HLA-B60 (B*4001) [2], YEDIHGTLHL [PRAME 448-457 YEDIHGTLHL] returned an IC50 of under 1 µM. In turn, RLAYLHARLR [PRAME 459-468 RLAYLHARLR] gave an IC50 with HLA-A3 (A*0301) of 1 µM. Consider RPRRWKLQVL [PRAME 113-122 RPRRWKLQVL], for which the 50% inhibitory concentration (IC50) in the test with HLA-B7 (B*0702) [3] and with HLA-B8 (B*0801) [4] was under 1 µM throughout. VLYPVPLESY [PRAME 439-448 VLYPVPLESY] came in with an IC50 with HLA-B62 (B*1501) of 1.66 µM. For RPRRWKLQVL [PRAME peptide RPRRWKLQVL], the IC50 with HLA-B7 (B*0702) [5] and with HLA-B8 (B*0801) [6] was under 1 µM throughout. In the test with HLA-B35 (B*3501), EPILCPCFM [PRAME 499-507 EPILCPCFM] displayed an IC50 of 0.32 µM. For YLHARLREL [PRAME 462-470 YLHARLREL], the IC50 with HLA-B8 (B*0801) [7] was under 1 µM. In the test with HLA-A1 (A*0101), LSNLTHVLY [PRAME 433-441 …] gave an IC50 of under 1 µM.

The values above are taken from patent publication US20160333065A1 (ACADEMISCH ZIEKENHUIS LEIDEN H O D N LUMC, published 2016).
